Assay results: patent publication US12611443B2, “Methods and compositions related to therapeutic peptides for cancer therapy” (THE UNIVERSITY OF CHICAGO, priority 2018, dated 2026)
Entries after “also recorded” stand apart in the source; their conditions may differ.

Legend:
[1] = tested on: human/murine cancer cells; experiment: In vitro cell viability of cancer cells (calcein-AM, CASP3, ANXA5); format: cell-based; details: for effect of ELANE inhibitor treatment of ELANE or PMN media on cancer cell killing: PMSF 1 mM or A1AT 42 nM
Source text: Cell lines. The ovarian cancer cell lines—CAOV3, OVCAR3, OVCAR4, OVCAR5, A2780, A2780/CP70, HeyA8, TykNu, SKOV3, ID8, and ID8p53-/- were a gift from Dr. Ernst Lengyel, University of Chicago. The breast cancer cell lines—MDA-MB-231, MDA-MB-231.BM1, MCF-7, M6C, E0771, and E0771.LMB were a gift from Dr. Marsha Rosner, University of Chicago. The colon carcinoma cell line RKO, glioblastoma cancer cell line T98G, osteosarcoma cell lines U-2OS and Saos-2, and the hepatocellular carcinoma cell line HepG2 were a gift from Dr. Kay McLeod, University of Chicago. The lung cancer cell line NCI-H552 was a gift from Dr. Stephanie Huang, University of Chicago, and A549 and LLC1 cells were purchased from ATTC. The melanoma cell lines—B16F10, Mel888, Mel1106, and SK-MEL-28 cells were a gift from Dr. Thomas Gajewski, University of Chicago. The pancreatic cancer cell line PANC1 was a gift from Dr. Yamuna Krishnan, University of Chicago. The leukemia cell line K562 was a gift from Dr. Amittha Wickrema, University of Chicago.
The prostate cancer cell lines—CWR22Rv1, LAPC4, and LNCaP were a gift from Dr. Donald Vander Griend, University of Chicago. The neuroblastoma cell lines—SK-N-BE(2) and NBL-WN cells were a gift from Dr. Lucy Godley, University of Chicago.
Neutrophil media collections. Freshly isolated human or murine neutrophils were plated in serum-free DMEM for 24 h. Conditioned media was collected, spun at 500×g for 5 min, and media protein levels were determined with a Bradford assay (Biorad).
PMN media manipulations. For boiling, PMN media was boiled at 95° C. for 5 min and spun at 15,000×g for 10 min to remove precipitated proteins. For dialysis, PMN media was placed into a Slide-a-Lyzer™ cassette (3.5 kDa cutoff, ThermoFisher Scientific) and dialyzed against 2×4L of PBS at 4° C. for 4 h. For PMSF-inactivation, PMN media was treated with PMSF (1 mM, Sigma) or A1AT (42 nM, Athens Research & Technology) and incubated at room temperature for up to 2 h. Residual PMSF was eliminated with a PD-10 desalting column (GE Healthcare Life). Inhibition of ELANE catalytic activity was confirmed using a chromogenic substrate activity assay (see below). For serum-spiking experiments, human, mouse, or fetal bovine serum (1% or 10%) was added to PMN media prior to or after exposing cancer cells. For immune-depletion studies, ELANE or ECP were immunoprecipitated using anti-ELANE (N2C3, GeneTx) or anti-ECP (MB S2535165, MyBioSource) coupled to Pierce™ Protein A/G Magnetic Beads (ThermoFisher Scientific).
(§1) In vitro cell viability assays. […] Luminescence was measured using a Victor X3 luminometer (PerkinElmer).

[2] = tested on: cancer cells; experiment: CD95 protein overexpression in cancer cells, viability in absence of ELANE (calcein-AM); format: cell-based, human; details: transient overexpression
Procedure: FIGS. 1A-1K. ELANE cleaves CD95 to selectively kill cancer cells. (A): Heatmap summary of ELANE's effects on survival, stress, and apoptosis pathways in cancer cells and healthy cells. (B-C): Cancer cells were treated with ELANE (100 nM) and CD95 cleavage was assessed by western blotting using anti-N-terminal (B) or anti-C-terminal antibodies (C). *, lower molecular weight CD95 fragment. (D): Cancer cells or non-cancer cells were transduced to overexpress CD95 proteins, and effects on ELANE-mediated apoptosis were quantified by ANXAS at 30 min. n=2/group. See FIG. 1I for transduction and CD95 over-expression. (E): Cleavage of recombinant human CD95 N-terminal (aa 1-173) or C-terminal (aa 212-335) proteins by ELANE was assessed by SDS-PAGE and Coomassie blue staining. (F): Bands from (E) were digested with trypsin and analyzed by mass spectrometry to identify putative ELANE cleavage sites (i.e., peptides with non-tryptic ends). Major non-tryptic peptides were quantified by ion chromatograms. (G): Schematic of ELANE cleavage sites in CD95. […] (H): Cleavage of recombinant peptides corresponding to aa 214-231 and aa 317-335 in CD95 by ELANE was monitored by mass spectrometry. (I): Cancer cells or non-cancer cells were treated with fluorescein-labeled ELANE for 10 min and uptake was visualized by immunofluorescence. (J): ELANE catalytic activity in cancer cell lysates following exposure to ELANE for 30 mins in the presence and absence of Dynasore (60 μM endocytosis inhibitor). Effect of Dynasore on cancer cell killing capability of ELANE (measured by calcein-AM). n=6/group. (K): Cancer cells or non-cancer cells were transduced to overexpress various CD95 proteins, and cell viability in the absence of ELANE was determined by calcein-AM. n=10/group. *, p<0.05 Student's t-test.
as §1
(§2) CD95 overexpression studies. Polycistronic adenoviral vectors were prepared to express the human and mouse CD95 sequences followed by the Encephalomyocarditis virus (EMCV) internal ribosome entry site and dTomato sequence under the control of the cytomegalovirus (CMV) promoter (VectorBuilder). Human and murine cancer cells or normal or non-cancer cells were transduced to over-express full-length CD95, N-terminal CD95 (human: aa 1-209; mouse: aa 1-204), C-terminal CD95 (human: aa 212-335; mouse: aa 204-327), or C-terminal CD95 that mimicked ELANE cleavage at site 1 (human: aa 221-335), site 2 (human: aa 212-331), or both sites (aa 221-331). Cancer cells or normal or non-cancer cells were transduced with adenoviruses at an MOI of 50-250 depending on cell type, and expression of dTomato and CD95 (human: 558814; mouse, mouse: 565130, BD Biosciences) were confirmed by flow cytometry. A vector encoding GFP (Vector Builders) was used as a control.

[3] = tested on: human and murine cancer cells; experiment: CD95 overexpression, ELANE-mediated apoptosis (ANXA5); format: cell-based; details: ELANE 40 nM, ANXA5 at 30 min
Procedure: FIGS. 2A-2D Overexpressing CD95 proteins accelerates cancer cell killing by ELANE. Polycistronic adenoviral vectors were prepared to express the human and mouse CD95 sequences followed by the Encephalomyocarditis virus (EMCV) internal ribosome entry site and dTomato sequence under the control of the cytomegalovirus (CMV) promoter. Human and murine cancer cells or non-cancer cells were transduced to over-express full-length CD95, N-terminal CD95 (human: aa 1-209; mouse: aa 1-204), or C-terminal CD95 (human: aa 212-335; mouse: aa 204-327). (A): Transduction efficiency quantified by dTomato (Left). CD95 levels in dTomato− and dTomato+ cells quantified by geometric mean (MFI) (Middle). ANXA5 levels in dTomato− and dTomato+ cells 30 min after treatment with ELANE (40 nM) (Right). Representative data for A549 cells are shown. (B-C): Quantification of transduction efficiency (B) and relative CD95 overexpression (C) for cancer cells and non-cancer cells. (D): Quantification of ANXA5 levels following ELANE treatment (40 nM, 30 min) for mouse cancer cell lines (E0771, B16F10). *, p<0.05 Student's t-test.
as §1, §2

O=S(=O)(F)Cc1ccccc1 [PMSF]
effect of ELANE inhibitor treatment of ELANE or PMN media on cancer cell killing [1]: eliminated the ability of PMN media to kill cancer cells in vitro and in vivo; also recorded: protects cancer cells from apoptosis

A1AT: alpha-1-anti-trypsin, irreversible non-competitive ELANE inhibitor
effect of ELANE inhibitor treatment of ELANE or PMN media on cancer cell killing [1]: eliminated the ability of PMN media to kill cancer cells in vitro and in vivo | effect of ELANE inhibitor treatment of ELANE or PMN media on cancer cell killing ([1]; listed as alpha-1-antitrypsin): protects cancer cells from apoptosis

B1: Cl: hCD95 C-terminal peptide aa 221-335, mimics ELANE cleavage at site 1 (protein)
chain: AINLSDVDLSKYITTIAGVMTLSQVKGFVRKNGVNEAKIDEIKNDNVQDTAEQKVQLLRNWHQLHGKKEAYDTLIKDLKKANLCTLAEKIQTIILKDITSDSENSNFRNEIQSLV
cancer cell death/toxicity on expression in the absence of ELANE [2]: toxic | cancer cell death/toxicity on expression in the absence of ELANE ([2]; listed as aa. 221-335 of SEQ ID NO:1): induced cancer cell death in the absence of ELANE

B2: full-length CD95: full length human CD95 (aa 1-335), isoform 1 (protein, listed as Homo sapiens)
chain: MLGIWTLLPLVLTSVARLSSKSVNAQVTDINSKGLELRKTVTTVETQNLEGLHHDGQFCHKPCPPGERKARDCTVNGDEPDCVPCQEGKEYTDKAHFSSKCRRCRLCDEGHGLEVEINCTRTQNTKCRCKPNFFCNSTVCEHCDPCTKCEHGIIKECTLTSNTKCKEEGSRSNLGWLCLLLLPIPLIVWVKRKEVQKTCRKHRKENQGSHESPTLNPETVAINLSDVDLSKYITTIAGVMTLSQVKGFVRKNGVNEAKIDEIKNDNVQDTAEQKVQLLRNWHQLHGKKEAYDTLIKDLKKANLCTLAEKIQTIILKDITSDSENSNFRNEIQSLV
cancer cell death/toxicity on expression in the absence of ELANE [2]: not toxic to cancer cells | effect of overexpression on ELANE-mediated killing [3]: accelerated ELANE-mediated killing in human cancer cells | effect of overexpression on ELANE-mediated killing ([3]; listed as human CD95 (hCD95)): did not protect against ELANE-mediated killing, but rather accelerated it

B3: N-terminal domain peptide of CD95: N-terminal domain of human CD95, aa 1-209 (protein, listed as Homo sapiens)
chain: MLGIWTLLPLVLTSVARLSSKSVNAQVTDINSKGLELRKTVTTVETQNLEGLHHDGQFCHKPCPPGERKARDCTVNGDEPDCVPCQEGKEYTDKAHFSSKCRRCRLCDEGHGLEVEINCTRTQNTKCRCKPNFFCNSTVCEHCDPCTKCEHGIIKECTLTSNTKCKEEGSRSNLGWLCLLLLPIPLIVWVKRKEVQKTCRKHRKENQGS
cancer cell death/toxicity on expression in the absence of ELANE [2]: not toxic to cancer cells | effect of overexpression on ELANE-mediated killing [3]: had no effect

B4: mouse CD95 (mCD95): mouse CD95 overexpressed in cancer cells (protein, UniProt P25446 22-327, looked up)
Tumor necrosis factor …: QGTNSISESLKLRRRVRETDKNCSEGLYQGGPFCCQPCQPGKKKVEDCKMNGGTPTCAPCTEGKEYMDKNHYADKCRRCTLCDEEHGLEVETNCTLTQNTKCKCKPDFYCDSPGCEHCVRCASCEHGTLEPCTATSNTNCRKQSPRNRLWLLTILVLLIPLVFIYRKYRKRKCWKRRQDDPESRTSSRETIPMNASNLSLSKYIPRIAEDMTIQEAKKFARENNIKEGKIDEIMHDSIQDTAEQKVQLLLCWYQSHGKSDAYQDLIKGLKKAECRRTLDKFQDMVQKDLGKSTPDTGNENEGQCLE
effect of overexpression on ELANE-mediated killing [3]: did not protect against ELANE-mediated killing, but rather accelerated it

B5: murine ELANE: recombinant mouse ELANE activated with CTSC (protein, UniProt Q3UP87 27-265, looked up)
Neutrophil elastase: SEIVGGRPARPHAWPFMASLQRRGGHFCGATLIARNFVMSAAHCVNGLNFRSVQVVLGAHDLRRQERTRQTFSVQRIFENGFDPSQLLNDIVIIQLNGSATINANVQVAQLPAQGQGVGDRTPCLAMGWGRLGTNRPSPSVLQELNVTVVTNMCRRRVNVCTLVPRRQAGICFGDSGGPLVCNNLVQGIDSFIRGGCGSGLYPDAFAPVAEFADWINSIIRSHNDHLLTHPKDREGRTN
cancer cell killing by murine ELANE [1]: kills cancer cells

B6: C2: hCD95 C-terminal peptide aa 212-331, mimics ELANE cleavage at site 2 (protein)
chain: SPTLNPETVAINLSDVDLSKYITTIAGVMTLSQVKGFVRKNGVNEAKIDEIKNDNVQDTAEQKVQLLRNWHQLHGKKEAYDTLIKDLKKANLCTLAEKIQTIILKDITSDSENSNFRNEI
cancer cell death/toxicity on expression in the absence of ELANE [2]: toxic | cancer cell death/toxicity on expression in the absence of ELANE ([2]; listed as aa. 212-331 of SEQ ID NO:1): induced cancer cell death in the absence of ELANE
